From article PMC8160579 (The Journal of Cell Biology, 2021)
Where no end group is shown, it is not given here.

B1: Myc-SAMM50 WT, in vitro translated (natural protein)
chain: MGTVHARSLEPLPSSGPDFGGLGEEAEFVEVEPEAKQEILENKDVVVQHVHFDGLGRTKDDIIICEIGDVFKAKNLIEVMRKSHEAREKLLRLGIFRQVDVLIDTCQGDDALPNGLDVTFEVTELRRLTGSYNTMVGNNEGSMVLGLKLPNLLGRAEKVTFQFSYGTKETSYGLSFFKPRPGNFERNFSVNLYKVTGQFPWSSLRETDRGMSAEYSFPIWKTSHTVKWEGVWRELGCLSRTASFAVRKESGHSLKSSLSHAMVIDSRNSSILPRRGALLKVNQELAGYTGGDVSFIKEDFELQLNKQLIFDSVFSASFWGGMLVPIGDKPSSIADRFYLGGPTSIRGFSMHSIGPQSEGDYLGGEAYWAGGLHLYTPLPFRPGQGGFGELFRTHFFLNAGNLCNLNYGEGPKAHIRKLAECIRWSYGAGIVLRLGNIARLELNYCVPMGVQTGDRICDGVQFGAGIRFL
B2: GABARAP Q59E (natural protein)
chain: MKFVYKEEHPFEKRRSEGEKIRKKYPDRVPVIVEKAPKARIGDLDKKKYLVPSDLTVGEFYFLIRKRIHLRAEDALFFFVNNVIPPTSATMGQLYQEHHEEDFFLYIAYSDESVYGL
B3: biotinylated SAMM50 LIR peptide (residues 18–41) (peptide)
peptide: DFGGLGEEAEFVEVEPEAKQEILE
modifications: also: biotinylated, position not given here

Experiments:
GST-GABARAP Y49A = GST-GABARAP Y49A (human, UniProt O95166 1-117, Y49A); assay: pull-down
[1] = target: B3; assay: BLI
GABARAPL1, purified = GABARAPL1, purified (human, UniProt Q9H0R8 1-117); assay: BLI
GABARAP, purified = GABARAP, purified (human, UniProt O95166 1-117); assay: BLI
LC3A, purified = LC3A, purified (human, UniProt Q9H492 1-121); assay: BLI
LC3C, purified = LC3C, purified (human, UniProt Q9BXW4 1-126); assay: BLI
LC3C, purified, sequence (Q9BXW4 1-126): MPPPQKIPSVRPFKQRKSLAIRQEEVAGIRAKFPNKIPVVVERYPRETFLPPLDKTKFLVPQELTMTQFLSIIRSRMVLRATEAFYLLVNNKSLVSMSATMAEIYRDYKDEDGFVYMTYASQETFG

GABARAPL1, purified, sequence (Q9H0R8 whole entry): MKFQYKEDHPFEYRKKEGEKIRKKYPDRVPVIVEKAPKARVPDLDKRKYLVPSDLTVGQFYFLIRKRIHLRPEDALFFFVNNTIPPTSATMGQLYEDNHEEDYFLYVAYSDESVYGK
GABARAP, purified, sequence (O95166 whole entry): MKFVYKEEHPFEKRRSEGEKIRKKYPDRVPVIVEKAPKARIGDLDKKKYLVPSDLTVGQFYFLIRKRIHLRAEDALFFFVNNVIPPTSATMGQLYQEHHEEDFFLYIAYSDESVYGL

B1 was tested, and the “reduction in binding relative to WT GABARAP” value (GST-GABARAP Y49A) was greater than 60%.

B2 was tested, and the “fold reduction of binding relative to WT GABARAP” value [1] was greater than 3.5 fold.

For B3, the Kd (GABARAPL1, purified) was 10 µM, the Kd (GABARAP, purified) was 23.9 µM and the Kd (LC3A, purified) was 27.6 µM. It also gave a Kd (LC3C, purified) of 57.2 µM.
